B1: Taf14ET (extra-terminal domain of Taf14, aa 168-243) (domain or fragment, S. cerevisiae, UniProt P35189 168-243, looked up)
chain: GSASTVKGSVDLEKLAFGLTKLNEDDLVGVVQMVTDNKTPEMNVTNNVEEGEFIIDLYSLPEGLLKSLWDYVKKNT
notes: Taf14, S. cerevisiae, UniProt P35189, ET domain, aa 168-243; Uniformly 15N-labelled for NMR; also called ET domain of Taf14

Experiments:
[1] = target: T1, Yng1_(EBM-PHD) (aa 100-219 of Yng1) (S. cerevisiae, UniProt Q08465 100-219); experiment: NMR titration; 1H,15N HSQC of 0.05-0.2 mM 15N-labeled Taf14 proteins, 298 K, unlabeled peptide or Yng1EBM-PHD added; Tris-HCl or PBS, pH 6.6-7.5; apparent Kd from CSPs, 1:1 stoichiometry; conditions: both partners purified
T1 construct: Yng1, S. cerevisiae, UniProt Q08465, EBM coupled to the PHD finger, aa 100-219; source: E. coli Rosetta-2 (DE3) pLysS, purified
T1 sequence (looked up): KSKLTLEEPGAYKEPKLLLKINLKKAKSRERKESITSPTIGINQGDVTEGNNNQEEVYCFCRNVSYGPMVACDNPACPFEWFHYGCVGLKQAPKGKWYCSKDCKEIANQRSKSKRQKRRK

[2] = target: the molecule itself; experiment: crystal structure; Taf14ET co-crystallized with Yng1EBM peptide (molar ratio 1:2.5); 40% PEG 400, 0.1 M Tris pH 8.5, 0.2 M LiSO4; 1.9 Å
[3] = format: physicochemical, Saccharomyces cerevisiae
Source text: The S. cerevisiae Taf14FL (aa 1-244) (UniProt code P35189), Taf14YEATS (aa 1-137), Taf14ET (aa 168-243) and Yng1EBM-PHD (aa 100-219) (UniProt code Q08465) were cloned into pGEX-6P1, pET22b or pCIOX vectors. The F220R, I222R and L224R mutants of Taf14ET were generated using QuikChange II site directed mutagenesis kit (Agilent). Sequences were confirmed by DNA sequencing. All proteins were expressed in Escherichia coli Rosetta-2 (DE3) pLysS cells grown in either Terrific Broth, Luria Broth or in minimal media supplemented with ^15NH4Cl (Sigma). Protein production was induced with 0.3 mM IPTG for 18 h at 16 °C. Bacteria were harvested by centrifugation and lysed by sonication. GST-fusion proteins were purified on glutathione agarose 4B beads (Thermo Fisher Sci). The GST-tag was cleaved with either PreScission or tobacco etch virus (TEV) protease. After cleavage, Taf14FL and Taf14YEATS retained the pGEX-6P1vector-derived residues Gly and Pro. His-fusion proteins were incubated with Ni-NTA resin (ThermoFisher), washed and eluted with a gradient of imidazole. When necessary, removal of the His-tag was completed during an overnight dialysis, while incubating the protein with ULP1 protease. […]
Nuclear magnetic resonance experiments were performed at 298 K on Varian INOVA 900 MHz (for Taf14FL) and 600 MHz (for Taf14ET and Taf14YEATS) spectrometers equipped with cryogenic probes as described. […] NMR data were processed and analyzed using NMRPipe as previously described, with the apparent Kds being determined by a nonlinear least-squares analysis and a 1:1 stoichiometry in GraphPad Prism using the equation:2 Δδ=ΔδmaxL+P+Kd−L+P+Kd^2−4PL/2P Where [L] is the concentration of the peptide, [P] is concentration of the protein, Δδ is the observed chemical shift change, and Δδ max is the normalized chemical shift change at saturation. Normalized chemical shift changes were calculated using the equation δ=ΔδH^2+(ΔδN/5)^2 (3), where Δδ is the change in chemical shift in parts per million (ppm).

[4] = target: T2, Taf14FL (full length Taf14, aa 1-244) (S. cerevisiae), P35189; experiment: mass photometry; Taf14FL with Yng1EBM (1:1 molar ratio), final 100 nM, room temperature, 50 mM Tris pH 7.5, 150 mM NaCl, 1 mM TCEP; conditions: remark: other sources report otherwise
T2 chain: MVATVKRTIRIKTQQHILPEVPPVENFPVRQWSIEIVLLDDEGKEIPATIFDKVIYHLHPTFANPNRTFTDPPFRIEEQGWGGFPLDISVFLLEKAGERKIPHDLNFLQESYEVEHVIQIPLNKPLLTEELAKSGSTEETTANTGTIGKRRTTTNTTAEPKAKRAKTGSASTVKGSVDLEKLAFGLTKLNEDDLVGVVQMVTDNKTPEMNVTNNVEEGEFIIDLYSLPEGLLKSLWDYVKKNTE

[5] = target: T3, Taf14FL (full length Taf14, aa 1-244) (S. cerevisiae, UniProt P35189 1-244); experiment: other fluorescence titration; tryptophan fluorescence, 25 °C; 1 μM Taf14ET or Taf14FL, increasing peptide; 50 mM Tris-HCl pH 6.8 or 7.5, 150 mM NaCl, 1 mM DTT or 0.2 mM TCEP; excitation 295 nm; apparent Kd, 1:1 stoichiometry; conditions: both partners purified
T3 construct: Taf14, S. cerevisiae, UniProt P35189, aa 1-244; uniformly 15N-labelled for NMR; also called transcription initiation factor subunit 14
T3 sequence (looked up): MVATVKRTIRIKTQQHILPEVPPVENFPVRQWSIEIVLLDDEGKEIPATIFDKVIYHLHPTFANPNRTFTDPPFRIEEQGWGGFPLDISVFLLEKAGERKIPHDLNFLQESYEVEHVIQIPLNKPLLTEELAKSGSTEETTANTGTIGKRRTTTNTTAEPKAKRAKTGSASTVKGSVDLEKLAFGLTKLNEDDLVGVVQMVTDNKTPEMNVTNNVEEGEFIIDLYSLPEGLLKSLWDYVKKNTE

[6] = target: B1; experiment: as above; conditions: both partners purified
[7] = target: B1; experiment: NMR titration; 1H,15N HSQC of 0.05-0.2 mM 15N-labeled Taf14 proteins, 298 K, unlabeled peptide or Yng1EBM-PHD added; Tris-HCl or PBS, pH 6.6-7.5; apparent Kd from CSPs, 1:1 stoichiometry; conditions: both partners purified

## B1
[1]
  binding result: binds
[2]
  stoichiometry N: 2

B2: L224R Taf14ET: L224R mutant of Taf14ET (aa 168-243 of S. cerevisiae Taf14) (protein, UniProt P35189 168-243, looked up, variant L224R)
chain: GSASTVKGSVDLEKLAFGLTKLNEDDLVGVVQMVTDNKTPEMNVTNNVEEGEFIIDRYSLPEGLLKSLWDYVKKNT
modifications: ET domain (aa 168-243)
[3]
  stability of mutated Taf14ET protein: unstable

B3: F220R Taf14ET: F220R mutant of Taf14ET (aa 168-243 of S. cerevisiae Taf14) (protein, UniProt P35189 168-243, looked up, variant F220R)
chain: GSASTVKGSVDLEKLAFGLTKLNEDDLVGVVQMVTDNKTPEMNVTNNVEEGERIIDLYSLPEGLLKSLWDYVKKNT
modifications: ET domain (aa 168-243)
[3]
  stability of mutated Taf14ET protein: unstable

B4: I222R Taf14ET: I222R mutant of Taf14ET (aa 168-243 of S. cerevisiae Taf14) (protein, UniProt P35189 168-243, looked up, variant I222R)
chain: GSASTVKGSVDLEKLAFGLTKLNEDDLVGVVQMVTDNKTPEMNVTNNVEEGEFIRDLYSLPEGLLKSLWDYVKKNT
modifications: ET domain (aa 168-243)
[3]
  stability of mutated Taf14ET protein: unstable

B5: Taf14FL (full length Taf14, aa 1-244), P35189 1-244 (natural protein)
chain: MVATVKRTIRIKTQQHILPEVPPVENFPVRQWSIEIVLLDDEGKEIPATIFDKVIYHLHPTFANPNRTFTDPPFRIEEQGWGGFPLDISVFLLEKAGERKIPHDLNFLQESYEVEHVIQIPLNKPLLTEELAKSGSTEETTANTGTIGKRRTTTNTTAEPKAKRAKTGSASTVKGSVDLEKLAFGLTKLNEDDLVGVVQMVTDNKTPEMNVTNNVEEGEFIIDLYSLPEGLLKSLWDYVKKNTE
[4]
  stoichiometry N: 2

B6: Sas3EBM peptide (aa 111-122 of Sas3), Ac-SEELKVRIKYDS-NH2 (peptide)
peptide: Ac-SEELKVRIKYDS-NH2
notes: Sas3 (something about silencing 3), catalytic subunit of the yeast NuA3 complex, aa 111-122; also called Sas3 peptide; source: synthetic peptide (Synpeptide)
[5]
  Kd: 21 µM
[6]
  Kd: 18 µM

B7: L114D Sas3EBM peptide (aa 111-122 of Sas3) (peptide, UniProt P34218 111-122, looked up)
peptide: SEEDKVRIKYDS
notes: Sas3, yeast, aa 111-122 with L114D; The wild-type peptide is Ac-...-NH2; source: peptide
[7]
  Kd: 540 µM

From article PMC11196586, “Molecular insight into interactions between the Taf14, Yng1 and Sas3 subunits of the NuA3 complex” (Nature Communications, 2024)
